{"source": "patent US20070060497A1", "about": "“Reagents for modifying biopharmaceuticals, the use and production thereof” (priority 2003, published 2007)", "molecules": {"B1": {"name": "conjugate composed of L-asparaginase and substance 16: conjugate composed of the compound according to the invention substance 16 and L-asparaginase (conjugate, UniProt P00805 23-348, looked up)", "L-asparaginase 2": "LPNITILATGGTIAGGGDSATKSNYTVGKVGVENLVNAVPQLKDIANVKGEQVVNIGSQDMNDNVWLTLAKKINTDCDKTDGFVITHGTDTMEETAYFLDLTVKCDKPVVMVGAMRPSTSMSADGPFNLYNAVVTAADKASANRGVLVVMNDTVLDGRDVTKTNTTDVATFKSVNYGPLGYIHNGKIDYQRTPARKHTSDTPFDVSKLNELPKVGIVYNYANASDLPAKALVDAGYDGIVSAGVGNGNLYKSVFDTLATAAKTGTAVVRSSRVPTGATTQDAEVDDAKYGFVASGTLNPQKARVLLQLALTQTKDPQQIQQIFNQY", "modifications": "conjugated to substance 16", "notes": "conjugate composed of the compound according to the invention substance 16 and L-asparaginase"}, "B2": {"name": "conjugate composed of trypsin and substance 16: conjugate composed of the compound according to the invention substance 16 and trypsin (conjugate, UniProt P00760 24-246, looked up)", "Serine protease 1": "IVGGYTCGANTVPYQVSLNSGYHFCGGSLINSQWVVSAAHCYKSGIQVRLGEDNINVVEGNEQFISASKSIVHPSYNSNTLNNDIMLIKLKSAASLNSRVASISLPTSCASAGTQCLISGWGNTKSSGTSYPDVLKCLKAPILSDSSCKSAYPGQITSNMFCAGYLEGGKDSCQGDSGGPVVCSGKLQGIVSWGSGCAQKNKPGVYTKVCNYVSWIKQTIASN", "modifications": "conjugated to substance 16", "notes": "conjugate composed of the compound according to the invention substance 16 and trypsin"}}, "key": {"L-asparaginase": {"molecular_target": "T1, L-asparaginase (Escherichia coli, UniProt P00805)", "T1 construct": "purchased ProThera", "test": "L-asparaginase enzyme activity (ammonium released, quantified with Nessler reagent)", "assay_type": "biochemical", "description": "(§1) Determining the enzyme activities: L-asparaginase catalyzes the deamidation of L-asparagine to form L-aspartic acid. In order to determine the enzyme activity, ammonium which was being released in this reaction was quantified using Neβler reagent. Streptokinase activates plasminogen. Plasminogen which has been activated in this way catalyzes the hydrolysis of the tripeptide derivative D-Val-Leu-Lys-para-nitroanilide (S-2251). In order to indirectly determine the activity of streptokinase, the quantity of nitroaniline which was released was quantified photometrically at 405 nm. The para-nitroanilide derivative α-benzoylarginine-para-nitroanilide was used to determine the peptidolytic activity of trypsin, by photometrically quantifying the nitroaniline which was released at 405 nm.\nSubstance 16 (0.5 eq./0.7 μl, 1 eq./1.4 μl, 2 eq./2.7 μl, 5 eq./6.8 μl, 10 eq./13.7 μl and, respectively, 20 eq./27.3 μl) dissolved in dimethyl sulfoxide (10 mg/ml) was added to 75 μl of a solution of L-asparaginase (0.5 mg/ml) in sodium carbonate buffer (pH 8.5 to 9.5) and the mixture was made up to a total volume of 150 μl using sodium carbonate buffer (pH 8.5 to 9.5). The reaction mixture was incubated at 25° C. and 300 rpm for 1 h on a thermomixer. Excess substance 16 was then removed by means of filtration in centrifuge filtration units (10 kDa cut-off) using water as rinsing liquid."}, "trypsin": {"tested_on": "trypsin", "test": "Peptidolytic activity of trypsin (α-benzoylarginine-para-nitroanilide, 405 nm)", "assay_type": "biochemical", "description": "as §1\nSubstance 16 (0.5 eq./1.5 μl, 1 eq./2.7 μl, 2 eq./5.4 μl, 5 eq./13.8 μl and, respectively, 10 eq./27.3 μl) dissolved in dimethyl sulfoxide (10 mg/ml) was added to 120 μl of a solution of trypsin (1.0 mg/ml) in sodium carbonate buffer (pH 8.5 to 9.5) and the mixture was made up to a total volume of 150 μl using sodium carbonate buffer (pH 8.5 to 9.5). The reaction mixture was incubated at 25° C. and 300 rpm for 1 h on a thermomixer. Excess substance 16 was then removed by means of filtration in centrifuge filtration units (10 kDa cut-off) using water as rinsing liquid."}}}
{"molecule": "B1", "values": [{"measurement": "Residual activity", "setting": "L-asparaginase; 0.5 eqs. of 16 employed", "value": 100, "unit": "%"}, {"measurement": "Residual activity", "setting": "L-asparaginase; 1 eq. of 16 employed", "value": 100, "unit": "%"}, {"measurement": "Residual activity", "setting": "L-asparaginase; 2 eqs. of 16 employed", "value": 92, "unit": "%"}, {"measurement": "Residual activity", "setting": "L-asparaginase; 5 eqs. of 16 employed", "value": 87, "unit": "%"}, {"measurement": "Residual activity", "setting": "L-asparaginase; 10 eqs. of 16 employed, degree of modification 41%", "value": 75, "unit": "%"}, {"measurement": "Residual activity", "setting": "L-asparaginase; 20 eqs. of 16 employed, degree of modification 43%", "value": 60, "unit": "%"}]}
{"molecule": "B2", "values": [{"measurement": "Residual activity", "setting": "trypsin; 0.5 eqs. of 16 employed", "value": 104, "unit": "%"}, {"measurement": "Residual activity", "setting": "trypsin; 1 eq. of 16 employed", "value": 109, "unit": "%"}, {"measurement": "Residual activity", "setting": "trypsin; 2 eqs. of 16 employed", "value": 119, "unit": "%"}, {"measurement": "Residual activity", "setting": "trypsin; 5 eqs. of 16 employed", "value": 136, "unit": "%"}, {"measurement": "Residual activity", "setting": "trypsin; 10 eqs. of 16 employed, degree of modification 44%", "value": 137, "unit": "%"}]}
